B1: DARPin® protein #20 (designed binder)
chain: MRGSHHHHHHGSDLGKKLLQAARAGQLDEVRELLKAGADVNAKDQSGATPLHLAAFRGHLEIVEVLLKAGADVNAKDAAGYTPLHIAAVYGHLEIVEVLLKAGADVNAKDSAGETPLHLAAYAGHLEIVEVLLKAGADVNAQDKSGKTPADLAARAGHQDIAEVLQKAA
B2: DARPin® protein comprising SEQ ID NO 230 (linked to a CD3-specific binding agent) (designed binder)
chain: GSDLGKKLLQAARAGQLDEVHELLKAGADVNAKDQHGKTPMHLAAQIGHLEIVEVLLKAGADVNAKDHIGWTPLHLAASVGHLEIVEVLLKAGADVNAKDQEGWTPLHVAAQLGHLEIVEVLLKAGADVNAQDKSGKTPADLAARAGHQDSAEVLQKAA
B3: DARPin® protein comprising SEQ ID NO 220 (linked to a CD3-specific binding agent) (designed binder)
chain: GSDLGHKLLFAASAGQDDEVRILLAAGADVNAKDESGQTPLHYAAFVGHLEIVEVLLKAGADVNAKDQWGHTPLHVAATFGHLEIVEVLLKAGADVNAQDTWGTTPADLAATFGHEDIAEVLQKAA
B4: DARPin® protein comprising SEQ ID NO 228 (linked to a CD3-specific binding agent) (designed binder)
chain: B3 chain with H6W, F10H, S13T, A14T
B5: DARPin® protein comprising SEQ ID NO 224 (linked to a CD3-specific binding agent) (designed binder)
chain: B3 chain with H6F, F10E, S13L, A14E
B6: DARPin® protein comprising SEQ ID NO 229 (linked to a CD3-specific binding agent) (designed binder)
chain: B3 chain with H6S, F10Y, S13I, A14S, E120V
B7: DARPin® protein comprising SEQ ID NO 225 (linked to a CD3-specific binding agent) (designed binder)
chain: GSDLGIKLLFAANFGQDDEVRILLAAGADVNAKDQSGRTPLHLAALWGHLEIVEVLLKAGADVNAKDVFGLTPLHIAATFGHLEIVEVLLKAGVDVNAQDYTGHTPADLAALIGHEDIAEVLQKAA
B8: DARPin® protein comprising SEQ ID NO 221 (linked to a CD3-specific binding agent) (designed binder)
chain: GSDLGQKLLLAAAIGQDDEVRILLAAGADVNAKDESGHTPLHYAAHVGHLEIVEVLLKAGDVNAKDHRGFTPLHVAAQIGHLEIVEVLLKAGADVNAQDNWGITPADLAAWWGHEDIAEVLQKAA
B9: DARPin® protein comprising SEQ ID NO 226 (linked to a CD3-specific binding agent) (designed binder)
chain: GSDLGKKLLSAAQSGQDDEVRILLGAGADVNAKDKWGHTPLHLAAVKGHLEIAEVLLKAGADVNAKDEWGSTPLHLAASQGHLEIVEVLLKAGADVNAKDKKGATPLHLAALVGHLEIVEVLLKAVADVNAQDKSGKTPADLAARAGHQDIAEVLQKAA
B10: DARPin® protein comprising SEQ ID NO 222 (linked to a CD3-specific binding agent) (designed binder)
chain: GSDLGYKLLTAAIVGQDDEVRILLAAGADVNAKDQSGLTPLHLAAAYGHLEIVEVLLKAGADVNAKDKHGRTPLHLAALEGHLEIVEVLLKAGADVNAQDQFGITPADLAAAVGHEDIAEVLQKAA
B11: DARPin® protein comprising SEQ ID NO 227 (linked to a CD3-specific binding agent) (designed binder)
chain: B10 chain with Y6Q
B12: DARPin® protein #27 (designed binder)
chain: MRGSHHHHHHGSDLGFKLLQAAHYGQDDEVRILLAAGADVNAKDEYGRTPLHHAALKGHLEIVEVLLKAGADVNAKDEFGTTPLHYAAIFGHLEIVEVLLKAGADVNAQDSSGFTPADLAALVGHEDIAEVLQKAA
B13: DARPin® protein #28 (designed binder)
chain: MRGSHHHHHHGSDLGQKLLKAAALGQDDEVRDLLKAGADVNAKDYQGQTPLHLAAWTGHLEIVEVLLKAGADVNAKDHFGYTPLHIAAHFGHLEIVEVLLKAGADVNAQDAAGQTPADLAAAEGHEDIAEVLQKAA
B14: DARPin® protein #25 (designed binder)
chain: MRGSHHHHHHGSDLGNKLLSAAIRGQDDEVRILLAAGADVNAKDIHGHTPLHAAAQFGHLEIVEVLLKAGADVNAKDFYGLTPLHLAAIFGHLEIVEVLLKAGADVNAQDEEGKTPADLAAVIGHEDIAEVLQKAA
B15: DARPin® protein #26 (designed binder)
chain: MRGSHHHHHHGSDLGEKLLFAAFIGQDDEVRILLAAGADVNAKDEYGHTPLHAAAQHGHLEIVEVLLKAGADVNAKDQFGLTPLHIAAIFGHLEIVEVLLKAGADVNAQDHAGYTPADLAAWQGHEDIAEVLQKAA
B16: SEQ ID NO 160 (designed binder)
chain: GSDLGKKLLQAAQAGQDDEVRELLKAGADVNAKDEWGRTPLHVAAYWGHLEIVEVLLKAGADVNAKDSFGLTPLHLAAIEGHLEIVEVLLKAGADVNAQDQQGATPADLAALLGHEDIAEVLQKAA
B17: SEQ ID NO 172 (designed binder)
chain: GSDLGKKLLQAARAGQLDEVRELLKAGADVNAKDEWGATPLHLAAYAGHLEIVEVLLKAGADVNAKDRWGLTPLHVAAVEGHLEIVEVLLKAGADVNAKDIEGETPLHIAAFTGHLEIVEVLLKAGADVNAQDKSGKTPADLAARAGHQDVAEVLQKAA
B18: SEQ ID NO 157 (designed binder)
chain: GSDLGYKLLYAALFGQDDEVRILLAAGADVNAKDYFGKTPLHIAAYYGHLEIVEVLLKAGADVNAKDRYGITPLHLAALEGHLEIVEVLLKAGADVNAQDTDGITPADLAAWEGHEDIAEVLQKAA
B19: SEQ ID NO 167 (designed binder)
chain: GSDLGKKLLQAARAGQLDEVRELLKAGADVNAKDSSGWTPLHLAAYTGHLEIVEVLLKAGADVNAKDQWGLTPLHLAALEGHLEIVEVLLKAGADVNAKDHTGKTPLHLAAQQGHLEIVEVLLKAGADVNAQDKSGKTPADLAARAGHQDIAEVLQKAA
B20: SEQ ID NO 165 (designed binder)
chain: GSDLGEKLLQAALEGQDDEVRELLKAGADVNAKDLVGWTPLHIAAYRGHLEIVEVLLKAGADVNAKDWVGLTPLHLAAIEGHLEIVEVLLKAGADVNAQDREGKTPADLAALLGHEDIAEVLQKAA
B21: SEQ ID NO 169 (designed binder)
chain: GSDLGKKLLQAARAGQLDEVRELLKAGADVNAKDHWGKTPLHLAAYEGHLEIVEVLLKAGADVNAKDLFGLTPLHLAAIEGHLEIVEVLLKAGADVNAKDSFGYTPLHVAAQVGHLEIVEVLLKAGADVNAQDKSGKTPADLAARAGHQDIAEVLQKAA

Positions count from the first letter of the chain named.

In one assay the target is NYESOpMHC on T2 cells pulsed with NY-ESO-1-9V (157-165) peptide.
Assay: not given
A word on the EC50: it is the midpoint of the concentration-response curve. Read a low EC50 as greater potency. B1 showed an EC50 of 20.6 nM.

A further assay concerns the target T1, HBVc18pMHC, biotinylated recombinant complex (HLA-A*0201: HBVc18) (human; Hepatitis B virus).
T1 construct: also called HBVc18 peptide-MHC complex
The experiment in a line: SPR (ProteOn).
One may read the Kd as the equilibrium constant for the complex coming apart. Take B2: the Kd worked out at 9.33 nM.

Turning to B3, the Kd was 4.65 nM.

As for B4, the Kd is 4.72 nM.

Turning to B5, the Kd stood at 0.736 nM.

As to B6, the Kd stood at 1.03 nM.

Turning to B7, the dissociation constant Kd came to 9.23 nM.

With B8, the Kd was determined as 0.369 nM.

In the case of B9, the Kd was determined as 13.8 nM.

Consider B10, for which the Kd is 7.15 nM.

For the molecule B11, the Kd is 7.1 nM.

In the next assay the target is NYESOAApMHC (HLA-A*0201:NYESO1-9VAA), biotinylated recombinant complex (human). The experiment in a line: SPR (ProteOn), biotinylated pMHC on NLC chip.
On to B12, for which the binding result was “no binding”.

For the molecule B13, the binding result is listed as “no binding”.

In the case of B14, the binding result is recorded as “no binding”.

With B1, the binding result is reported as “no binding”.

As for B15, the binding result is “no binding”.

The target of the next assay is EBNApMHC (HLA-A*0201:EBNA-1), biotinylated recombinant complex (human; Epstein Barr virus). The assay is described as follows: SPR (ProteOn), biotinylated pMHC on NLC chip.
In the case of B12, the binding result was “no binding (tested: 3.7 nM to 300 nM, or 250 nM single trace)”.

For the molecule B13, the binding result was “no binding (tested: 3.7 nM to 300 nM, or 250 nM single trace)”.

On to B14, for which the binding result is reported as “no binding (tested: 3.7 nM to 300 nM, or 250 nM single trace)”.

Take B1: the binding result is “no binding (tested: 3.7 nM to 300 nM, or 250 nM single trace)”.

Regarding B15, the binding result is on record as “no binding (tested: 3.7 nM to 300 nM, or 250 nM single trace)”.

Another assay deals with T2, MAGEA3pMHC, biotinylated recombinant complex (HLA-A*0101, MAGE-A3 peptide) (human).
T2 construct: also called MAGE-A3 peptide-MHC complex
The assay is described as follows: ribosome display selection, crude extract HTRF.
Take B16: the binding result is listed as “binds”.

With B17, the binding result is recorded as “binds”.

For B18, the binding result was “binds”.

In the case of B19, the binding result was “binds”.

For B20, the binding result is reported as “binds”.

Consider B21, for which the binding result is reported as “binds”.

A further assay deals with T3, NYESOpMHC (HLA-A*0201:NYESO1-9V), biotinylated recombinant complex (human).
T3 construct: also called NY-ESO-1 peptide-MHC complex
The experiment in a line: SPR (ProteOn), biotinylated pMHC on NLC chip, PBS with Tween.
For B12, the Kd is 0.494 nM.

For B13, the Kd turned out to be 2.57 nM.

Consider B14, for which the Kd is 0.172 nM.

Regarding B1, the equilibrium dissociation constant (Kd) stood at 5.79 nM.

As to B15, the Kd amounted to 1.29 nM.

The values above are taken from patent US20230243070A1 (Molecular Partners, published 2023).
